According to paper PMC4271445:

Target: Nullbasic-FLAG-V5-6xHis (HIV-1)
Assay: BLI

B1: Myc-DDK-tagged DDX1 (natural protein)
chain: MAAFSEMGVMPEIAQAVEEMDWLLPTDIQAESIPLILGGGDVLMAAETGSGKTGAFSIPVIQIVYETLKDQQEGKKGKTTIKTGASVLNKWQMNPYDRGSAFAIGSDGLCCQSREVKEWHGCRATKGLMKGKHYYEVSCHDQGLCRVGWSTMQASLDLGTDKFGFGFGGTGKKSHNKQFDNYGEEFTMHDTIGCYLDIDKGHVKFSKNGKDLGLAFEIPPHMKNQALFPACVLKNAELKFNFGEEEFKFPPKDGFVALSKAPDGYIVKSQHSGNAQVTQTKFLPNAPKALIVEPSRELAEQTLNNIKQFKKYIDNPKLRELLIIGGVAARDQLSVLENGVDIVVGTPGRLDDLVSTGKLNLSQVRFLVLDEADGLLSQGYSDFINRMHNQIPQVTSDGKRLQVIVCSATLHSFDVKKLSEKIMHFPTWVDLKGEDSVPDTVHHVVVPVNPKTDRLWERLGKSHIRTDDVHAKDNTRPGANSPEMWSEAIKILKGEYAVRAIKEHKMDQAIIFCRTKIDCDNLEQYFIQQGGGPDKKGHQFSCVCLHGDRKPHERKQNLERFKKGDVRFLICTDVAARGIDIHGVPYVINVTLPDEKQNYVHRIGRVGRAERMGLAISLVATEKEKVWYHVCSSRGKGCYNTRLKEDGGCTIWYNEMQLLSEIEEHLNCTISQVEPDIKVPVDEFDGKVTYGQKRAAGGGSYKGHVDILAPTVQELAALEKEAQTSFLHLGYLPNQLFRTF
  Kd: 6 nM
